{"source": "patent US20260240994A1", "about": "(MAYO FOUNDATION FOR MEDICAL EDUCATION AND RESEARCH, published 2026)", "binders": {"B1": {"name": "hmcECAD.6 scFv clone (scFv)", "scFv": "LPVLTQPPSASGTPGQRVTISCSGSSSNIGSNYVYWYQQLPGTAPKLLIYRNNQRPSGVPDRFSGSKSGTSASLAISGLQSEDEADYYCASWDTSLRAWVFGGGTKLTVLGEGKSSGSGSESKASEVQLVQSGGGLVQPGGSLRLSCAASGFTFSSYSMNWVRQAPGKGLEWVSYISSSSSTIYYVDSVKGRFTISRDNAKNSLYLQMDSLRAEDTAVYYCARGGRVLVGALFDYWGQGTLVTVSS", "notes": "Human scFv from a naive phage display library; also called anti-hmcECAD.6; anti-Ecad scFv"}}, "key": {"[1]": {"target": "T1, mouse Ecad (recombinant protein, BioLegend) (mouse, UniProt P09803 157-709, limits assumed)", "T1 construct": "Bought recombinant protein; Also used here for the general statements of mouse cross-reactivity; also called mouse E-cadherin", "T1 sequence (looked up)": "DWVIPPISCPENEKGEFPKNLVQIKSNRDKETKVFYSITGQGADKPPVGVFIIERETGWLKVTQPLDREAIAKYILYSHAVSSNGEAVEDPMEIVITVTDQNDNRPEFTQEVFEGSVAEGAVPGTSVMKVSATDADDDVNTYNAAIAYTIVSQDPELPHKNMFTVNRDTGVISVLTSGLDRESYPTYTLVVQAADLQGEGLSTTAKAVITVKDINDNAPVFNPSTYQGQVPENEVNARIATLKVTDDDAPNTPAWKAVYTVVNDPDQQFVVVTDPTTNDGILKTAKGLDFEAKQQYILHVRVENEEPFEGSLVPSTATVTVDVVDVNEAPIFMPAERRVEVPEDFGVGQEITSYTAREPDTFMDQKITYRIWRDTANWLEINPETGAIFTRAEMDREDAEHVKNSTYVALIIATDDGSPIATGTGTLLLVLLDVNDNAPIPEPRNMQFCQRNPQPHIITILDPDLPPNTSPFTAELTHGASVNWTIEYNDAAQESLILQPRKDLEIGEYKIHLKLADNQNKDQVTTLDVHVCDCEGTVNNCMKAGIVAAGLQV", "assay": "phage ELISA; relative affinity estimated against the FLAG antibody signal", "description": "(§1) hmcECAD.6 scFv sequence was generated and optimized for binding to Ecad protein through phage display library selection. A naive human scFv library of approximately 2×10⁹ diversity was used to screen against recombinant Ecad protein (Biomolecular Discovery, Rochester, NY). The hmcECAD.6 scFv clone was identified after two rounds of screening against mouse Ecad followed by another round of panning on human Ecad Fc chimeric protein (both from BioLegend, San Diego, CA). […] Final hmcECAD.6 sequence (SEQ ID NO: 90) was codon optimized for cloning of heavy and light chain into EcCAR plasmid."}, "[2]": {"target": "T2, Recombinant Human E-cadherin Fc chimera (BioLegend) (human, UniProt P12830 155-707)", "T2 construct": "also called human Ecad Fc chimeric protein; recombinant human Ecad Fc chimera; Fc part of the bought chimera not given", "T2 sequence (looked up)": "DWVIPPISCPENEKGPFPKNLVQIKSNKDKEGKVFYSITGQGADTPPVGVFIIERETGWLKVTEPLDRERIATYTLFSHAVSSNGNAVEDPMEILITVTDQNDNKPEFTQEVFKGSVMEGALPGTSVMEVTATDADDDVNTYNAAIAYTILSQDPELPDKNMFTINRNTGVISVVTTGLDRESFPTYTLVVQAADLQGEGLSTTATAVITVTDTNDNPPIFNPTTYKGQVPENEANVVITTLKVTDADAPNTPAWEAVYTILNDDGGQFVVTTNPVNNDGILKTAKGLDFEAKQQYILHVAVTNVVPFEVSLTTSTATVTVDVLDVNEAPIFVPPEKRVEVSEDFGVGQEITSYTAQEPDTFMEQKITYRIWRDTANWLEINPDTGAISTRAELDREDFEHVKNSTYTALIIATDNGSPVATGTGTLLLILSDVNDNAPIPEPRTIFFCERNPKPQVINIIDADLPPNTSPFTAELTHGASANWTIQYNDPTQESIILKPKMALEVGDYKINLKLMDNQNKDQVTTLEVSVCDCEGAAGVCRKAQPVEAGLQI", "assay": "phage display panning", "description": "as §1"}}}
{"binder": "B1", "values": [{"measurement": "Kd", "setting": "[1]", "result": "~5", "unit": "nM"}, {"measurement": "binding result", "setting": "[2]", "result": "binds"}]}
